Laboratory results reported in paper PMC12501251 (Communications Biology, 2025).

Tests used:
Assay in all cases: ELISA
[1] = target: N3 NA (head domain plus stalk region) from A/swine/Missouri/2124514/2006 (H2N3) (Influenza A virus …, UniProt A9YN63, strain)
[2] = target: N8 NA (head domain plus stalk region) from A/gyrfalcon/41088-6/2014 (H5N8) (Influenza A virus …, UniProt A0A0C4WVM3, strain)
[3] = target: N1 NA head domain (residue 82-469) from A/Brevig Mission/1/1918 (H1N1) (Influenza A virus A/Brevig …, UniProt Q9IGQ6)
[4] = target: T1, N2 NA head domain from A/Japan/305/1957 (H2N2) (Influenza A virus A/Japan/305/1957 …, strain)
T1 chain: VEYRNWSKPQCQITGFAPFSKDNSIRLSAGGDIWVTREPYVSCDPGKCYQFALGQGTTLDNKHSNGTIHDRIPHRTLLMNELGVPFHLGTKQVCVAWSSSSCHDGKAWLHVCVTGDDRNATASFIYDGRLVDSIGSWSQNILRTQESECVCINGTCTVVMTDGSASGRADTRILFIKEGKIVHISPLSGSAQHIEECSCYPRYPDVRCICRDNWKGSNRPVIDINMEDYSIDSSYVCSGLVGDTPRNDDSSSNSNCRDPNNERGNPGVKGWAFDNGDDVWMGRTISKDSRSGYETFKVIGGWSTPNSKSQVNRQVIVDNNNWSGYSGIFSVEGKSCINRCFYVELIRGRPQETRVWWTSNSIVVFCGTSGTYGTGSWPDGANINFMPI

Measured: binding result

N1 NA head domain (residue 82-469) from A/Brevig Mission/1/1918 (H1N1), sequence (Q9IGQ6 82-469): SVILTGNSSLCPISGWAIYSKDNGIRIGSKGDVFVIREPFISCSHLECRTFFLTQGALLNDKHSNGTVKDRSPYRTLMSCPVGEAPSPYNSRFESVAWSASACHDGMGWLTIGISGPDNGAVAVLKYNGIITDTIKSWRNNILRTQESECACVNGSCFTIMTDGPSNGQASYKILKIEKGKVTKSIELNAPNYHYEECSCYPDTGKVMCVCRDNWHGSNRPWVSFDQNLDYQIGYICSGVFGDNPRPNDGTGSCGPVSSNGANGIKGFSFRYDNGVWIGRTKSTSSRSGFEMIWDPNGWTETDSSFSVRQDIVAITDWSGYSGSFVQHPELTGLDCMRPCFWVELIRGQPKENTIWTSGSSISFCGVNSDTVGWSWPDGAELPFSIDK

B1: 1122A11 (human IgG1 mAb) (antibody, V domains shown)
VH: QVQLVQSGAEVSKPGASVKVSCKASGYSFTSQSLGWVRQAPGQGLEWMGIINPSGGITNYAHKFQGRVTMTRDTSTSTVYMELSSLRSEDTALYYCVRDLSHYNEVGHDRAYYYGMDIWGQGTTVTVSS
VL: SYELIQPPSVSVSPGQTASITCSGDKLGKKYTCWYQQKPGQSPVLVIYQDNKRPSGIPERFSGSNSGNTATLTISGTQAMDEADYYCQAWDSSAVVFGGGTKLTVL
binds: all assays above
